From patent publication US20200354425A1 (DONG-A ST CO., LTD., published 2020)
Residue numbers refer to the chain shown, from its start. *1 amine or outer side, *2 acyl side, *3 side chain or, on linkers, in order; H or OH if unused. Bridges are numbered along the chain shown (N, C = ends). Where no end group is shown, it is not given here. Side-chain parts run from the residue outwards. [ ]: non-standard residue; d: D form. The star is where a group is joined. γGlu = O=C(O)[C@H](CCC(=O)[*:2])N[*:1]; Stearoyl = CCCCCCCCCCCCCCCCCC(=O)*; AEEA = NCCOCCOCC(=O)O; Aib = CC(C)(N)C(=O)O

B1: Compound 42 (peptide)
peptide: HXQGTFTSDXSKYLDXRRAQDFVQWLMNTK
modifications: not fully specified; Aib at positions 2 and 16; Z at position 10 = Lys([(2-(2-(2-aminoethoxy)ethoxy)acetoyl)2]-[gammaglutamicacid]-[15-carboxypeptadecanoyl]) (so in the source)
B2: Compound 35 (peptide)
peptide: B1 peptide with X16E, Q20K
modifications: not fully specified; Aib at position 2; Z at position 10 = Lys([(2-(2-(2-aminoethoxy)ethoxy)acetoyl)2]-[gamma glutamicacid]-[octadecanoyl]); a ring formed between E and K (positions 16 and 20) via glycine cross-link
B3: Compound 25 (peptide)
peptide: B1 peptide with X16E, Q20K
modifications: Aib at position 2; Z at position 10 = Lys([(2-(2-(2-aminoethoxy)ethoxy)acetoyl)4]-[gamma glutamicacid]-[octadecanoyl]); lactam ring formed between E and K (positions 16 and 20)
B4: Compound 11 (peptide)
peptide: B1 peptide
modifications: Aib at positions 2 and 16; Z at position 10 = Lys([Gly-Gly-Ser-Gly-Ser-Gly]-[gamma glutamic acid]-[octadecanoyl])
B5: Compound 33 (peptide)
peptide: B1 peptide with X16E, Q20K
modifications: Aib at position 2; Z at position 10 = Lys([(2-(2-(2-aminoethoxy)ethoxy)acetoyl)2]-[gamma glutamicacid]-[octadecanoyl]); a ring formed between E and K (positions 16 and 20) via 1-aminocyclohexan-4-carbonyl cross-link
B6: Compound 34 (peptide)
peptide: B1 peptide with X16E, Q20K
modifications: not fully specified; Aib at position 2; Z at position 10 = Lys([(2-(2-(2-aminoethoxy)ethoxy)acetoyl)2]-[gamma glutamicacid]-[octadecanoyl]); a ring formed between E and K (positions 16 and 20) via 4-aminobenzoyl cross-link
B7: Compound 36 (peptide)
peptide: B1 peptide with X16E, Q20K
modifications: not fully specified; Aib at position 2; Z at position 10 = Lys([(2-(2-(2-aminoethoxy)ethoxy)acetoyl)2]-[gamma glutamicacid]-[octadecanoyl]); a ring formed between E and K (positions 16 and 20) via leucine cross-link
B8: Compound 14 (peptide)
peptide: B1 peptide with X16E, Q20K
modifications: Aib at position 2; Z at position 10 = Lys([(2-(2-(2-aminoethoxy)ethoxy)acetoyl)2]-[gamma glutamicacid]-[octadecanoyl]); lactam ring formed between E and K (positions 16 and 20)
B9: Compound 17 (peptide)
peptide: B1 peptide
modifications: Aib at positions 2 and 16; Z at position 10 = Lys([(2-(2-(2-aminoethoxy)ethoxy)acetoyl)]-[gamma glutamicacid]-[octadecanoyl])
B10: Compound 4 (peptide)
peptide: B1 peptide with X2S, X16S
modifications: Z at position 10 = Lys([(2-(2-(2-aminoethoxy)ethoxy)acetoyl)2]-[gamma glutamicacid]-[octadecanoyl]); C-terminal amide (-NH2)
B11: Compound 23 (peptide)
peptide: B1 peptide with X16E, Q20E
modifications: Aib at position 2; Z at position 10 = Lys([(2-(2-(2-aminoethoxy)ethoxy)acetoyl)2]-[gamma glutamicacid]-[octadecanoyl]); a ring formed between E and E (positions 16 and 20) via 1,4-piperazinyl cross-link
B12: Compound 10 (peptide)
peptide: B1 peptide
modifications: Aib at positions 2 and 16; Z at position 10 = Lys([(2-(2-(2-aminoethoxy)ethoxy)acetoyl)3]-[gamma glutamicacid]-[octadecanoyl])
B13: Compound 30 (peptide)
peptide: B1 peptide with X16E, Q20E
modifications: Aib at position 2; Z at position 10 = Lys([(2-(2-(2-aminoethoxy)ethoxy)acetoyl)2]-[gamma glutamicacid]-[octadecanoyl]); a ring formed between E and E (positions 16 and 20) via 1,2-ethylenediamino cross-link
B14: Compound 19 (peptide)
peptide: B1 peptide with X16E, Q20K
modifications: Aib at position 2; Z at position 10 = Lys([(2-(2-(2-aminoethoxy)ethoxy)acetoyl)2]-[gamma glutamicacid]-[octadecanoyl]); lactam ring formed between E and K (positions 16 and 20); C-terminal amide (-NH2)
B15: Compound 7 (peptide)
peptide: HXQGTFTSDXSKYLDXRRAQDFVQWLMNTKRNRNNIA
modifications: Aib at positions 2 and 16; Z at position 10 = Lys([(2-(2-(2-aminoethoxy)ethoxy)acetoyl)2]-[gamma glutamicacid]-[octadecanoyl])
B16: Compound 44 (peptide)
peptide: B1 peptide
modifications: not fully specified; Aib at positions 2 and 16; Z at position 10 = Lys([(2-(2-(2-aminoethoxy)ethoxy)acetoyl)2]-[gammaglutamicacid]-[19-carboxypeptadecanoyl]) (so in the source)

Experiments:
Human glucagon receptor = Human glucagon receptor (human, UniProt P47871); assay: cell-based or functional assay
Human GLP-1 receptor = Human GLP-1 receptor (human, UniProt P43220); assay: cell-based or functional assay

Binder | EC50(pM), CRE-driven luciferase activity (Human glucagon receptor) | EC50(pM), CRE-driven luciferase activity (Human GLP-1 receptor)
B1 | > 1000 pM | 
B2 | < 10 pM | < 10 pM
H[Aib]QGTFTSDK([AEEA-AEEA-γGlu-Stearoyl])SKYLDKRRAKDFVQWLMNTK (linker 16-20 via 1,4‑phenylenebiscarbconyl) [Compound 31] | < 10 pM | < 10 pM
H[Aib]QGTFTSDK([AEEA-AEEA-γGlu-Stearoyl])SKYLDDRRAKDFVQWLMNTK (lactam 16-20) [Compound 26] | < 10 pM | < 10 pM
B3 | < 10 pM | < 10 pM
B4 |  | < 10 pM
B5 | < 10 pM | < 10 pM
B6 | < 10 pM | < 10 pM
B7 | < 10 pM | < 10 pM
B8 | < 10 pM | < 10 pM
B9 | < 10 pM | < 10 pM
B10 |  | < 10 pM
H[Aib]QGTFTSDK([AEEA-AEEA-γGlu-Stearoyl])SKYLD[Aib]RRAQDFVQWLLRAK [Compound 12] | < 10 pM | < 10 pM
B11 | < 10 pM | < 10 pM
B12 | < 10 pM | < 10 pM
B13 | < 10 pM | < 10 pM
B14 | < 10 pM | < 10 pM
B15 | < 10 pM | < 10 pM
B16 | > 1000 pM | 
